Changes are numbered by the printed parent chain. Names and notes keep the numbering of the source.
T1: Xenopus laevis StrepII-FANCD2 (Xenopus laevis)
T1 chain: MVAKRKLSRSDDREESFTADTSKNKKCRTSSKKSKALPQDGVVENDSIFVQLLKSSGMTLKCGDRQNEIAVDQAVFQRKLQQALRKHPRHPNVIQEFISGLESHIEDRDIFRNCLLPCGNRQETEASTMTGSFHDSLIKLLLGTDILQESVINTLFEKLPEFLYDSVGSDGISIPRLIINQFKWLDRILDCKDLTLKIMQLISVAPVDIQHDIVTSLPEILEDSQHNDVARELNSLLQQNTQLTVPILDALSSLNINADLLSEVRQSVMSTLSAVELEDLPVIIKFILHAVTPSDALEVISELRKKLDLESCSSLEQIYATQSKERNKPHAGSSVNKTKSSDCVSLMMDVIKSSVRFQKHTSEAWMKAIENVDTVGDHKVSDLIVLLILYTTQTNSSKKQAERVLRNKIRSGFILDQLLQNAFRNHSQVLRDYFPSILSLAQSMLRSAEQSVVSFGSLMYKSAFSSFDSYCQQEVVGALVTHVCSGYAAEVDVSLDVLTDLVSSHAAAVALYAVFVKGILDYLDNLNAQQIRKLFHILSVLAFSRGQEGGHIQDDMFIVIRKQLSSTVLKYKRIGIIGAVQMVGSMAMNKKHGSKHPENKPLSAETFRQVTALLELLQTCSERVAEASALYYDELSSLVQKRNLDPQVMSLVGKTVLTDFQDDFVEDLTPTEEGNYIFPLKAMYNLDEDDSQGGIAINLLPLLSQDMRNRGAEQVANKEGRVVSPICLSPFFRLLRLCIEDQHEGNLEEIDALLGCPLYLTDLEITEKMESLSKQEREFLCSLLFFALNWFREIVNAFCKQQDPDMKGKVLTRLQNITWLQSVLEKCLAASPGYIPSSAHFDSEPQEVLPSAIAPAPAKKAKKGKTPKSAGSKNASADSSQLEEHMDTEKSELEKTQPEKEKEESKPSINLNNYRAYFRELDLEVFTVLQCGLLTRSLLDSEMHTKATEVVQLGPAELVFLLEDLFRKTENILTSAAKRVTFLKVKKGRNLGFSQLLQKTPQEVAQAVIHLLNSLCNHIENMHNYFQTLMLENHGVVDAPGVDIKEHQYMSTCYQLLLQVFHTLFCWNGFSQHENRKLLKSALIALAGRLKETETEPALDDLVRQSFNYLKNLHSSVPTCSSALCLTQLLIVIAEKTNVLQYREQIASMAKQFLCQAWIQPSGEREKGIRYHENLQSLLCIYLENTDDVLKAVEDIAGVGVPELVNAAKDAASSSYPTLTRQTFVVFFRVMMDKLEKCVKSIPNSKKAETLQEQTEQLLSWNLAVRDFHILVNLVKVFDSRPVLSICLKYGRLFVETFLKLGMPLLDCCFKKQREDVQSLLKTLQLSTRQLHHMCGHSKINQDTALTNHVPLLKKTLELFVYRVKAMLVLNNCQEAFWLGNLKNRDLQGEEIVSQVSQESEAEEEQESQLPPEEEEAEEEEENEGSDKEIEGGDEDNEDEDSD

T2: Xenopus laevis StrepII-FANCD2
T2 chain: T1 chain

B1: Xenopus laevis Flag-FANCI wild type S557A; S560A; S566A; S597A; S618A; S630A (protein)
chain: MDQKILSLAAEEQNDGLQSYLQNLKETELSEIITKHAVKGKDCGALLRGVFKGSPCSHDVAVRRRLAVYRHCIQLVESGDLQREVASEIMGLLMLEVHHFPGASLIELANLFADAVKAGTLSNGKSLDLFPTVLTALSSKESLAYGKGELTGEEFKKQLINSLCSSRWDPQSVIFLTSMFRDVSLSAEELQFVVEKVLRMLSKLDLQEMPPLVYQLLLLSAKGSKKNIVEGIITIFNDLDQKQLVQQENSESLDLEDATIPQDQLHHVEGTIILHIVFAIKLDQELGRELLKYLKAGQQGDSSKILCPFSAALLLSVSRIHRFQEQVFDFLKSTILRDYKDLQFHQSSKFLQDLVPQPVCVSSILLETVKNSVYGWDHVTQGLVELGFILMDSFGPKAAFGNKVVELISVHSRTPSQQACQLGSRILLETFKVHEPIRSEILEQVLNRVITKAATPVTHFIDLLSDIVVSAPLILQNSSSKVTEAFDHLSFLPLTTVQGLLKAVQPLLKISMSMRDSLILVLRKAMFSSQIDARKSAVAGFLLLLRNFKVLGSLSSAQCAQAIGAAQIQVDVHMRYNAAANEAFCLEILGSLRRCLAQQADVRLMLYEGFYDVLRRNAQLASSVMQTLLAQLKRYYEPEPDLLPPLKLEGCITAQGDHIFLQEPLAHLLCCIHHCLQWYKSSLQQHRNPDEDDDDDDQTGCQQDLNDIMESITRRMIKCDLEDFELDKSADFSLASGVGVKNNIYAVLVMGICEVLIEYNFIIANFSKSKFEDILGLFKCCSKLSDILKEKAAKGRQPGNNKTARSLISMTFVSTLLTALFRDSTRSHEESLSILRANVDFMRYSVCVALQKIQQLEETGVTDGPDGQNSEKMFRSLCEITRVLMWRYTSIPAAAENPGKKDKGKTISLLCLEGLLRVFNTVQQRYPSKIPQFLTALDALGDEDEEGSREINVTEKAAFQIKQFQRSLINQLSGGEDDFNSKEALLLVSILSTLSRLLAPSSQQFVQMLSWTVKICKETNIEDVQFCKGIMNLLFSLHVQFKSPVSVLRELCQDIHGHLGDIDQDIEVEKQSHFATVSLKTAAPTVTLLVLGQAAKVLEEVDWLIIKLKGLLGSEKLSTEDLTQTSNARVPIEKAIILQLGTLLTACHELVQTALPAGSCTDTLLKELAKMYTILTSVVKYYLQICSSHGGQISARLEKLVKLSGSHLTPQCYAFITYVQNIHSESLSLAAEKKKKKKEEALTVTSAKILRDTKPIPNLIFAIEQYEKFLIHLSKKSKVNLMQYMKLSTSRDFRINAATLDAALQEKGSEDEENEPDNEQAVTEEESQEPKKKRRRK
B2: Xenopus laevis Flag-FANCI wild type S557D; S560D; S566D; S597D; S618D; S630D (protein)
chain: B1 chain with A557D, A560D, A566D, A597D, A618D, A630D
B3: Xenopus laevis Flag-FANCI S6D phosphomimic mutant (natural protein)
chain: B1 chain with Y20C, S302T, D338G, A557D, A560D, A566D, A597D, A618D, A630D, C781Y
modifications: Full length assumed, since construct limits are not printed. Flag tag left out. The L homeolog is assumed; if it has no entry or the checks fail, try fanci.S or fanci. Expressed in Hi5 insect cells.

What was measured:
[1] = molecular target: Xenopus laevis StrepII-FANCD2; assay: Biolayer interferometry (BLItz); details: StrepII-FANCD2-loaded biosensors in 20 ng/mL solution; FANCI 62.5-1000 nM
[2] = molecular target: T1, Xenopus laevis StrepII-FANCD2; assay: Biolayer interferometry (BLItz); details: StrepII-FANCD2-loaded biosensors in 20 ng/mL solution; FANCI 62.5-1000 nM
[3] = molecular target: T2, Xenopus laevis StrepII-FANCD2; assay: Biolayer interferometry (BLItz); details: chain shown with the change; StrepII-FANCD2-loaded biosensors in 20 ng/mL solution; FANCI 62.5-1000 nM
[4] = molecular target: T1, Xenopus laevis StrepII-FANCD2; assay: BLI
[5] = molecular target: T1, Xenopus laevis StrepII-FANCD2; assay: BLI

Molecule	Kd [3] [nM]	koff [3] [s⁻¹]	further results
Xenopus laevis Flag-FANCI wild type S557D; S560D; S566D; S597D; S618D; S630D	–	–	kon [1]: 39000 M⁻¹ s⁻¹
B1	10.1	9e-05	kon [2]: 11000 M⁻¹ s⁻¹
B2	136	0.0061	–
B3	–	–	koff [4]: 0.0061 s⁻¹; Kd [5]: 136 nM

Source: paper PMC7010609 (2020)
